Laboratory results from patent publication US20240376455.

Tests used:
Assay in all cases: cleavage_in_vitro
[1] = system: T1, LPG10134 (Brevundimonas vesicularis); details: PAM NGG; 37C 120 min
T1 sequence: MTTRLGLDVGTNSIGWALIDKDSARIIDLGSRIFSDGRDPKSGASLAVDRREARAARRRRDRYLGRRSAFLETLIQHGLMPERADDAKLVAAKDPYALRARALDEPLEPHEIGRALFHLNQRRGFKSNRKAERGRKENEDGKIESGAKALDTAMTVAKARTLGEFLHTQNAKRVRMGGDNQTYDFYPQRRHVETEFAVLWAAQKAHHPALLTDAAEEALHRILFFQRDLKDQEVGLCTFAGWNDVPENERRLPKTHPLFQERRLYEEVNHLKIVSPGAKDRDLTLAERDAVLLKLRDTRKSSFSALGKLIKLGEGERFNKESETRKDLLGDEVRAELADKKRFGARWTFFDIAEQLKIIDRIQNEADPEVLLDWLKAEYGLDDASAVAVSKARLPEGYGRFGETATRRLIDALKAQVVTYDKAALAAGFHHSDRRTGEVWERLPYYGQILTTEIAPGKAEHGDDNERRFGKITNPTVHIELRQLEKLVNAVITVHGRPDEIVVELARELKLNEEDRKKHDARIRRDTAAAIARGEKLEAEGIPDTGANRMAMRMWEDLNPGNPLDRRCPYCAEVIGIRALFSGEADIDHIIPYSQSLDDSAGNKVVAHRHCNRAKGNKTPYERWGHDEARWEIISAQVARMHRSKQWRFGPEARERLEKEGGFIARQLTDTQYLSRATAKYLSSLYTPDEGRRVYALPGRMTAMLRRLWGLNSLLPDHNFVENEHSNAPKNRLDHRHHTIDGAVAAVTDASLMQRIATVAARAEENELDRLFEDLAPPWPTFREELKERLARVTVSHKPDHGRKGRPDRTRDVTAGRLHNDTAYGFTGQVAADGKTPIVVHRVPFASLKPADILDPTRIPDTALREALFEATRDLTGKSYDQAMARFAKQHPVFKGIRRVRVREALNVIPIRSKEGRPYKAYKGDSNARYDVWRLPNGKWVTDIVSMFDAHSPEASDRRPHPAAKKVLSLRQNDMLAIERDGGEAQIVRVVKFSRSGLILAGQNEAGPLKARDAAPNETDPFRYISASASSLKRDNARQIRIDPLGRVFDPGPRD

[2] = system: T2, LPG10155 (Chryseobacterium geocarposphaerae); details: PAM SEQ ID 82
T2 sequence: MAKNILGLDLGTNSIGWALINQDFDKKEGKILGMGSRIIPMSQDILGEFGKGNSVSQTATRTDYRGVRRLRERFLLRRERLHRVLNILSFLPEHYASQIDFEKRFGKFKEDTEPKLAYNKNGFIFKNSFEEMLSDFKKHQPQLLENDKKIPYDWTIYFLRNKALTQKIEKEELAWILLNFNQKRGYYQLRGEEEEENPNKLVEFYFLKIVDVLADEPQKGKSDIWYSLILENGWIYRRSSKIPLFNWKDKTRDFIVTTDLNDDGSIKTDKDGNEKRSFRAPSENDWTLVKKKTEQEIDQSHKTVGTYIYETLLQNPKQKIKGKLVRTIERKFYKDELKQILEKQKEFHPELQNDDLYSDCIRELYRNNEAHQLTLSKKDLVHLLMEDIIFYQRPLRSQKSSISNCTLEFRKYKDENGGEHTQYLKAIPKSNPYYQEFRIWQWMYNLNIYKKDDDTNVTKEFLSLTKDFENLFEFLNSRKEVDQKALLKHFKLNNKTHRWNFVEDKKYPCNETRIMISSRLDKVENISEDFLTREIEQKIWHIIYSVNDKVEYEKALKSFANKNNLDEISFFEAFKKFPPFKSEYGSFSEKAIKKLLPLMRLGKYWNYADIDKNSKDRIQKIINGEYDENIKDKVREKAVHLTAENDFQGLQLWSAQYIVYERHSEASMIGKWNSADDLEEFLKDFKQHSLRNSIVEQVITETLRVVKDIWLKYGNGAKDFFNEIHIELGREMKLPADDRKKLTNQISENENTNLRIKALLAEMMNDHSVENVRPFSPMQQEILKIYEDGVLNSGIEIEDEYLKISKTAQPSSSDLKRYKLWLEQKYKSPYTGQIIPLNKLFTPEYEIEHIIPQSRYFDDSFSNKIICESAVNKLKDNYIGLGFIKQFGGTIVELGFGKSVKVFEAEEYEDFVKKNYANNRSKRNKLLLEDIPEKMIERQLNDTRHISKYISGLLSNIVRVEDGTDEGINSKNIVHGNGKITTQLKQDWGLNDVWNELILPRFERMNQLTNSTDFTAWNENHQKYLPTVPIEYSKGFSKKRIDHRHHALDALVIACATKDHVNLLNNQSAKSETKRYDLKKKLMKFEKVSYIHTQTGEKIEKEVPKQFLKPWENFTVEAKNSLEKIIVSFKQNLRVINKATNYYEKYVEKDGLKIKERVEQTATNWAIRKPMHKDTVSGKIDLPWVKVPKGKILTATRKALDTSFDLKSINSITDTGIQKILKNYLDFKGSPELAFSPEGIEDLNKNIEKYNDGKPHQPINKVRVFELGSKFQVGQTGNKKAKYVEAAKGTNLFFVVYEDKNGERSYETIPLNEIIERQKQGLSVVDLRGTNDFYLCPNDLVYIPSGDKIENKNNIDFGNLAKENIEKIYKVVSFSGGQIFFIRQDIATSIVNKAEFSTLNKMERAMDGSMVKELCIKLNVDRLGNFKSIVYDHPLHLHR

[3] = system: T3, LPG10160 (Chryseobacterium ureilyticum); details: PAM SEQ ID 84; 35% pure protein
T3 sequence: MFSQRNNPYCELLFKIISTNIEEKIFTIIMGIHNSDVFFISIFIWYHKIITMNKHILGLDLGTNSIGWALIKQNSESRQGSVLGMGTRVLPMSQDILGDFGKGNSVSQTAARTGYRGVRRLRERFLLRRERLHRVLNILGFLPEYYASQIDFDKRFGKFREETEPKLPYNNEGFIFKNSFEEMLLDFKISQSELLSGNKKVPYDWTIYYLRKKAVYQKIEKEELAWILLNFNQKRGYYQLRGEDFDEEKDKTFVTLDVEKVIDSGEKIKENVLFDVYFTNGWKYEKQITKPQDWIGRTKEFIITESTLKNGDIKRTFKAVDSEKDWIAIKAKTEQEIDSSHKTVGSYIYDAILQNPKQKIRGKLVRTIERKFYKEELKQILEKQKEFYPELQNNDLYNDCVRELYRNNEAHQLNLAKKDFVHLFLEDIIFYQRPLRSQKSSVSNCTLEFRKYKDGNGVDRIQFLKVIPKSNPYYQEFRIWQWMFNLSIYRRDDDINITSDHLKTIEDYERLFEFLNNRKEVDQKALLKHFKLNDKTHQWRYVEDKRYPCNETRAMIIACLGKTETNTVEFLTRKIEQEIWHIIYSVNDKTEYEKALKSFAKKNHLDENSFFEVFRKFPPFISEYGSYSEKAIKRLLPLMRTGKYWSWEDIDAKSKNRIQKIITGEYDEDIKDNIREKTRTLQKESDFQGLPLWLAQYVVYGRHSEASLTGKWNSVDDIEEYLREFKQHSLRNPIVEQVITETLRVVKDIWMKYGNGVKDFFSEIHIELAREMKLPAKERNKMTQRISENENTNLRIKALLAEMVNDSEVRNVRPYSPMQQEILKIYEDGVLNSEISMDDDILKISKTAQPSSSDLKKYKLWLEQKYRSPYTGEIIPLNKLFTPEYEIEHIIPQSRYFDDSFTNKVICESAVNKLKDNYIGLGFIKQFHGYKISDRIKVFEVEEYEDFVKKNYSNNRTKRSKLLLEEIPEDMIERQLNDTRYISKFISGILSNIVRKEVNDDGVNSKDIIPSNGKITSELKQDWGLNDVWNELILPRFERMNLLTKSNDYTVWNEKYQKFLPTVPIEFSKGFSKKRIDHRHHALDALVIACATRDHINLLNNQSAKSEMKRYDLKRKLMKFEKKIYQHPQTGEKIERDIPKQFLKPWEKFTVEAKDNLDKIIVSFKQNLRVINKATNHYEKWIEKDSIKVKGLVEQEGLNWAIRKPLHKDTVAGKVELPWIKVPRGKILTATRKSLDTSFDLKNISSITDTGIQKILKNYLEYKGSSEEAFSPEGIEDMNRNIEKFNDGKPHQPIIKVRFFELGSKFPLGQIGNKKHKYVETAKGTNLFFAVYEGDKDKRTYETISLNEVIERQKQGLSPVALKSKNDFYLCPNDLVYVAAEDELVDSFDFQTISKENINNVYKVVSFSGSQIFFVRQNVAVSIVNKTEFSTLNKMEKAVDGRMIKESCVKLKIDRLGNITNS

Sequence | activity (% target strand cleaved) [1] | activity (% target strand cleaved) [2] | activity (% target strand cleaved) [3]
CCAUGAUAUAGACGUUGUGGCUGUUGUAGUGUUGCCGCUGGCCUUCGAUUUCUGAAAAGUCAGAAAUCGAAGGCUGGCUGUUAACAAGCAGCUAGACUGCACCAAAUAAGGGCGGGGCUACGGCCCCGUCUUUU / GATATAGACGTTGTGGCTGTTGTAGTAGGACCTC / GAGGTCCTACTACAACAGCCACAACGTCTATATC [LPG10134 sgRNA L2 ; Library 2 target AGGACCTC] | 0 | – | –
GUUGCCGCUGGCCUUCGAUUUCUGAAAAGUCAGAAAUCGAAGGCUGGCUGUUAACAAGCAGCUAGACUGCACCAAAUAAGGGCGGGGCUACGGCCCCGUCUUUUGAGCGGACAGCAGCUUCCUAUAUCUCGUAC / GGACAGCAGCTTCCTATATCTCGTACAGGACCTC / GAGGTCCTGTACGAGATATAGGAAGCTGCTGTCC [LPG10134 sgRNA L1 ; Library 1 target AGGACCTC] | 0 | – | –
GUUGUGAAUUGCUUUAAAGAAAGCAAUUCACAAUAAGGAUUAUUCCGUUGUGAAAACAUCUAGCGCCUCGUCUAUCUACGGGGCAUUUU / GATATAGACGTTGTGGCTGTTGTAGTAGAAATTC / GAATTTCTACTACAACAGCCACAACGTCTATATC [LPG10155 sgRNA L2 ; Library 2 target AGAAATTC] | – | 7.6 | –
GUUGUGAAUUGCUUUAAAGAAAGCAAUUCACAAUAAGGAUUAUUCCGUUGUGAAAACAUCUAGCGCCUCGUCUAUCUACGGGGCAUUUU / GGACAGCAGCTTCCTATATCTCGTACAGAAATTC / GAATTTCTGTACGAGATATAGGAAGCTGCTGTCC [LPG10155 sgRNA L1 ; Library 1 target AGAAATTC] | – | 32.7 | –
GUUGUGAUUUGCUUUAAAGAAAGCAAUUCACAAUAAGGAUUAUUCCGUUGUGAAAACAUUUAAGCCCCCUCGUCUUACAAUACGGGGAUUU / GATATAGACGTTGTGGCTGTTGTAGTAAATATTC / GAATATTTACTACAACAGCCACAACGTCTATATC [LPG10160 sgRNA L2 ; Library 2 target AAATATTC] | – | – | 0
GUUGUGAUUUGCUUUAAAGAAAGCAAUUCACAAUAAGGAUUAUUCCGUUGUGAAAACAUUUAAGCCCCCUCGUCUUACAAUACGGGGAUUU / GGACAGCAGCTTCCTATATCTCGTACAAATATTC / GAATATTTGTACGAGATATAGGAAGCTGCTGTCC [LPG10160 sgRNA L1 ; Library 1 target AAATATTC] | – | – | 0
